Experimental data as given in the RNAGym collection of RNA variant scans (doi:10.7554/elife.80360).

B1: HDV Ribozyme (parent)
chain: GGCCGGCAUGGUCCCAGCCUCCUCGCUGGCGCCGGCUGGGCAACAUUCCGAGGGGACCGUCCCCUCGGUAAUGGCGAAUGGGACCCA

Variants of: B1
Experiment: self-cleavage, relative activity (ratio to wild type); higher = more cleavage; co-transcriptional

Variant	self-cleavage
G54A U72C	0.61
G54A U72G	0.453
A56U C61U	0.755
G55U C61G	1.11
C57G A78C	0.0959
A56G A87G	0.929
A56G A87U	0.897
G55U U72C	0.703
G55U U79A	0.635
G55A G74U	0.541
G55C C58A	1.15
G55C C58U	1.07
G55U A83C	0.554
A56U G81U	0.381
A56U G81C	0.312
C57A U69A	0.969
C57A U69C	0.892
G55C C62U	0.946
G55C C61A	1.06
C57G U60A	0.987
C57G U60C	1.07
G55C C84A	1.07
G53U A83U	0.609
A56G A77C	0.199

Variant	self-cleavage
A56U C75G	0.151
A56U C75A	0.0875
C57U G80C	0.145
G53U C85G	0.818
A56G G76C	1.16
G54C G76A	1.1
G54U U79C	0.513
G54U U79A	0.982
G54U C66U	0.914
G53C G68C	0.372
G55C G81U	0.256
C57U A83U	0.475
G54C G55A	1.08
C57A C85A	1.05
C57A C85G	0.748
G53C C57A	0.95
C57A A78G	0.63
G53U G68A	0.903
A56U U69G	0.959
C57A C61G	1.05
G54U A70C	0.515
G55U C57G	0.997
G54A A70U	0.843
G55U G74U	0.707

Variant	self-cleavage
G55U G74C	0.208
A56G G67A	1.09
C57G U72G	0.733
G55A A56C	0.895
A56U C63A	0.969
G55A C62A	1.01
G55A C62U	1.03
C57A A70U	1.25
G55A C86U	0.989
C57G G73U	0.464
A56G C84G	0.598
A56U A70G	1.07
A56U A70C	0.811
C57G C62A	0.957
C57U A70U	1.05
G55A C85U	0.885
G55A C85A	1.02
G55C A71G	0.912
G54C A87C	1.02
A56G A83G	0.831
A56G A83U	0.684
G54A C63A	0.831
C57G C84G	0.831
A56G U65C	1.05

Variant	self-cleavage
A56U G67A	1.17
G55U G67C	1.06
A56G U69G	0.831
C57G C63U	1.12
C57G C63G	1.09
G53C C64G	0.268
G53C A77G	0.88
C57A C58U	1.05
C57A C58G	1.14
G53C G81C	0.0665
G54C U60G	0.895
A56C C86U	1.03
G54C G59C	1.21
G55A U79C	0.511
G55A G81U	0.34
C57U C62A	0.941
C57G A70G	0.856
G55A G82U	0.241
G55U A78C	0.18
G53C G59C	0.958
G53C G59A	0.95
C57A U79G	0.831
A56C C62A	0.935
C57G U79A	0.802

Variant	self-cleavage
C57G U79C	0.598
G55A G59C	1.06
C57A A71U	0.929
G54C A83U	0.631
G53C G76C	0.991
G53C G76A	0.882
C57G C85U	0.849
G54A G59A	1.01
G54A G59C	1.07
A56G G80U	0.165
G55A A83C	0.731
G55C G67A	1.08
G55C G68C	0.752
A56C C58G	1.26
A56U C57U	0.886
A56U C57A	0.966
A56U C57G	1.08
C57A A83U	0.554
G53U G67C	0.534
A56G C63G	0.59
A56G C63U	0.682
G54A G68C	0.173
A56C A78G	0.706
A56U G73A	0.752

Variant	self-cleavage
A56U G73U	0.415
A56U G73C	0.698
G55U G59U	1.02
G53U C62A	0.901
C57U A87C	1.17
C57U A87G	0.979
G54C U72G	0.431
G54C C57U	0.997
C57A U72C	0.856
G55C A56U	1.01
G55C A56C	0.969
G55C A77C	0.495
G55C A77G	1.1
C57G G81U	0.388
A56C U65G	0.985
A56G U72A	0.643
A56G U72C	0.782
G55C G73C	0.479
G55C U79G	0.802
G53U A77G	0.8
C57G C64U	1.05
C57G C64G	0.849
C57G C64A	1.04
A56C C66U	0.861

Variant	self-cleavage
A56C C66G	0.99
G55U C64G	0.781
G54C G68C	0.346
G54C G73C	0.502
G53C U60G	1.01
A56C G73A	0.658
A56C G73U	0.521
A56G G73U	0.249
A56G G73C	0.38
G55C C63A	1.06
G53C C62G	1.01
G55C C57A	1.06
G53U C75A	0.117
G55U C66G	0.901
G53U C86G	1.12
A56G G59U	1.06
G55U G81A	0.287
G54U G59A	1
G54U G59U	1.14
G54U A77G	0.878
G54U A77U	0.688
G54C C84U	0.665
G54C A56G	0.808
